The nanobody polyreactivity screen of Harvey et al. (2022)

Assay: yeast display, Sf9 membrane polyspecificity reagent, FACS + sequencing; frameworks hold sequencing errors
Method in brief: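 Nanobodies from a synthetic yeast display library (Saccharomyces cerevisiae BJ5465), induced 36–48 hours with galactose, were stained 1 hour at 4 °C with 10% biotinylated, detergent-solubilized Sf9 membrane reagent, enriched on streptavidin microbeads, then FACS-sorted. Anti-HA (expression) and streptavidin (reagent binding) fluorescence set low and high (top ~1%) gates. Polyreactivity labels come from the gate of origin. Genes were colony-PCR amplified, MiSeq 2 × 250 sequenced and filtered by CDR length.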

Row | Sequence | polyreactivity (PSR sort gate)
1 | QVQLVESGGGLVQAGGSLRLSCAASGSIFDSYTMGWYRQAPGKERELVATINRSGGSTYYADSVKGRFTISRDNAKNTVYLQMNSLKPEDTAVYYCANVYPYTPYSSWRSKYDYWGQGTQVTVSS | low polyreactivity
2 | QVQLVESGGGLVQAGGSHRLSCAASGFTFWDYAMGWYRKAPGKEREMVAAITSRGTRTYYADSVKGRFTISRDNAKNTVYLQMNSLKPEDTDVYYCATAIPDPDYIHNYWGQGTQVTVSS | high polyreactivity
3 | QVQLVESGGGLVQAGGSLRLICAASGSIFSTYTMGWYRQAPGKERELVAAITRSGGSTYYADSVKGRFTISRDNAKNTVYLQMNSLKPEDTAVYYCAAKGKRLRSYYQRYYYWGQGTQVTVSS | high polyreactivity
4 | QVQLVESGGGLVHAGGSLRLSCAASGRTFATNTIGWYRQAPGKERELVAAITFSGGSTYYADSVKGRFTISRDTAKIPRYLQMNCLKPEDNEVYYCNVRSPYYSYRYRYGYWGQGSQVTVSS | high polyreactivity
5 | QVQLVESGGGLVQSGGSLRLSCAASGLIFGRYAMGWYRQAPGKERELVAAISYSGARTYYADSVKGRFTISRDNEKNTVYLQMNSLKPEDTAVYYCAAGPAFRQSEWWKAYDYWGQGTQVTVSS | high polyreactivity
6 | QVQLVESGGGLVLAGGSLRLSCAASGFIFSPYVRGWYRQAPGKDRELVAAISSIGGSTYYADSVKGRFTISRDNAKNTVFLQMNSLKPEDTAVYYCADSVYYYASRYDYWGQVTQVTVSS | low polyreactivity
7 | QVQLVESGGGLVQAGGSLRLSCAASGSIFPVYAMGWYRPAPGKERELVAAISWIGGGTYYADSVKGRFTISRDNAKNTVYLQKHSLKPEDTAVYDCAAVPYTSEYDYWGQGTEVTVSS | high polyreactivity
8 | QVQLVESCGGLVQAGGSLRLSCAASGFIFWCYTMGWYIQAPGKERELVAAITGSGGSTYYADSVKGRFTISRDNAKNTVNFQMNSLKPEDTAVYYCNAVSAYKWEYYYWGQGTLVTVSS | high polyreactivity
9 | QVQLVESGGGLVQAGGSLRVSCAASGLTSIHYMGWYRQAPGKERELVATITSSTGSTYYADSVKGRFTISRDNAKNTVYLQMNSLKPEDTAVDYCAAESFGADGPYQPSYDYWGQGTQVTVSS | low polyreactivity
10 | QVQLVESGGGLVQAGGSLRLSCAASGLIFSSYAMGWYRQAPGKEREFVAAINYNGGRTYYADSVKGRFTISRDNAKNTVYLQMNSLKPEDTAVYYCDGRYGSGGDYWGQGTQVTVSS | low polyreactivity
11 | QVQLVESGGGLVQAGGSLRLSCAASGSIFDWYAMGWYRQAPGKEGELVAAISSGDSTYYADSVKGRFTISRDNAKKTVYLQMNSLKPEDTAVYYCAAVTKLSGIRYNYWGQGTQVTVSS | low polyreactivity
12 | QVQRVESGGGLVQAGGSLRLSCAASGRIFIANAMGWYRQAPGKERELVAAISFSGGSTYYADSVKGRFTISRDHAKTTVYLQMNSLNPEDTAVYYCNALYTSYYRPSGMGYWGQGTQVTVSS | high polyreactivity
13 | QVQLVESGGGLVQAGGSLRLSCAASGGTFYVNDMGWYRQAPGKERELVATITYSGTSTYYADSVKGRFTISRDNAKNTVYLQMNSLKAEDTAVYYCATDVLLYFEPVNLDYWGQGTQVTVSS | low polyreactivity
14 | QVQLVESGGGLVQAGGSLRLSCAASGSIFQYNAMGWYRQAPGKEREFVAAITRGGGTYYADSVKGRFTISRDNAKKTVYLQMNSLKPEDTAVYYCAAQSRTSYRFNYWGQGTQVTVSS | high polyreactivity
15 | QVQLVESGGGLVQAGGSLRLSCAASGFTFSPNAMRWYRQAPGKERELVAAIDWSGDRTYYADSVKGRFTISRDNAKNTVYLQMNSLKPEDTAVYYCAADIRDPGVPMDYWGQGTQVTVSS | low polyreactivity
16 | QVHLVESGGGLVQAVSSLRLSCAASGSTFRAYAMGWYRQEPGKDRELVARITFSGGSTYYADSVKGRFTISRDNAKNTVYLQMNSLKPEDTAVYYCNARRTYLDRYNYWGQGTQVTVSS | high polyreactivity
17 | QVQLVESGGGLVQAGGSLRLSCAASGRIITFNPMGWYRQAPGKERELVAAISSRGDGTYYADSVKGRYTISRDNAKNSFYVQMNSLKPEDTAVYYCARYPDDYYDWGYDYWGHGTQVTVSS | low polyreactivity
18 | QVQLVESGGGLVQAGGSLRLSWAASGSIFFFNAMGWYRQAPGKEREFVAAITSSSGRTYYADSVKGRFTISRDNAKNTVYLQMNRLKPEDTAVYYCAAQVPEDTETVDYWGQGTQVTVSS | low polyreactivity
19 | QVQLVESGGGLVQAGGCLRLSCAASGSIFDYYTMGWYREAPGNEREFVAGISDSGGSTTYADSVKGRFTISRDNAKNTVYLQMNSLKPEDTAVYYCNAEYVGWFYKYDYWGQGTQVTVSS | high polyreactivity
20 | QVQLVESGGGLVQAGGSLRLSCAASGRTFWKNTMGWYRQAPGKERELVAVISSGGVSTSYADSVKGRFTISRDNAKNTVYLQMNSLKPEDTAVYYCAADGYYIGPYDYWGQGTQVTVSS | low polyreactivity
21 | QVQLVESGGGLVQAGGSLRLSCAASGNTIIDYAMGWYRQPPGKERELVASITSGGGSTYYADSVKGRFTISRDNAKNTVYLQMNSLKPVDTAVYYCAAERYYSEAIFRSYDYWGQGTQVTVSS | low polyreactivity
22 | QVQLVESGGGLVQAGGSLRLSCAASGSTFNSYAMGWYRQAPGKESELVAAITSSGSRTRYADSVKGRFTISRDNAKNTVYLQMNSLKPEDTAVYYCAAVYRLKSGGVWRDSQFGYWGQGTQVTVSS | high polyreactivity

Row | Sequence | polyreactivity (PSR sort gate)
23 | QVQLVESGGGLVQAGGSLRLSCAASGRIFGGYAMGWYRQAPGKERELVAAISSGGNTKYADSVKGRFTISRDNAKNTVYLQMNSLKPEDTAVYYCAAKFAQPYYRYDYWGQGTQVTVSS | high polyreactivity
24 | QVQLVESGGGLVQAGGSLRLSCAASGSTFAYYAMGWYRQAPGKERELVAAISSGGSTYYADSVKGRFTISRDNAKNTVYLQMNSLKPEDTAVYYCNKLWVGKFKRYEFGYWGQGTQVTVSS | low polyreactivity
25 | QVQLVESGGGLVQAGGSLRLSCAASGITLGYYAMGWYRQAPGKERELVAAITWSGTSTYYADSVKGRFTISRDNAKNTVYLQMNSLKPEDTAVYYCAAGFISQYQERGYWGQGTQVTVSS | low polyreactivity
26 | QVQLVESGGGLVQAGGSLRLSCAASGRTFYPYAMGWYRKAPGKERELVAAITSDGSTNYADSVKGRFTISRDNAKNTVYLQMNSLKPEDTAVYYCATAGYSWVSYDYWGQGTQVTVSS | low polyreactivity
27 | QVQLVESGGGLVQAGGSLRLSCAASGFTIDGYAMGWYRQAPGKERELVAAIRRGGRTKYADSVKGRFTISRDNAKNTVYLQMNSLKPEDTAVYYCAADRSRRGHLTHGYWGQGTQVTVSS | high polyreactivity
28 | QVQLQVSGGGLVQAGGSLRLNSAASGAIFLTSEMGWYRQAPGKERELVAAIATGTSTNYADSVKGLFTISRDNAKNTVYLQMNSLKPEDTAVYYCATYHYWGQGTQVTVSS | low polyreactivity
29 | QVQLVESGGGLVQAGGSLRLSCAASGFIYWYAMGWSRQAPGKERELVAAITWSGGSTYADSVKGRFTISRDNAKNTVYLQMNSLKPEDTAVYYCAADKYSQWSSHTRVRYDYWGQGTQVTVSS | low polyreactivity
30 | QVQLGESGGGLVQAGGSLRLSCAASGRIIYTNAMGWYRQAPGKETELVAAINRSGGITYYADSVKGRFTISRDNAKNTVYLQMNSLKPEDTAVYYCAKDYSWASYKHDYWGQGTQVTVSS | low polyreactivity
31 | QVQLVESGGGLVQAGGSHRLSCAASGLTFFPYAMGWYRQAPGKERELVAAITTSDGTTYYADSVKGRFTISRDNAKNTVYLQMNSLKPEDTAVYYCAAVYSPRSVWWYDYWGQGTQVTVSS | low polyreactivity
32 | QVQLVESVGGLVQAGGSLRLSCAGSGFTCGAYAMGWSRQAPRKERELVAAINTRGGSRYYADSVKGRFTISRDNAKNTVYLQMNSLKPEDTAVYYCAASVYFWYDYWGQGTQVTVSS | high polyreactivity
33 | QVQLVESGGGLVQAGGSLRLRCAASGRTFDTYAMGWYRQAPWKERELVASITYRGGSTYYADSVKGRFTISRDNGKNTVYLQLNSLKPVDTAVYYCNAKVKRNKRWRGYWGQGTQVTVSS | high polyreactivity
34 | QVQLVESCGGLVQAGGSLRLSCAATGRIFAGYVMGWYRPAHGKERELVAAISWRGGRTYYADSVKGRFTISRDNAKNTVYLQMISLKPEDTAVYYCNAPYAVGNPADDYWGQGTQVTVSS | high polyreactivity
35 | QVKLVESGGGLVQAGGSLRLSCADSGSIFGGNTMVWYRQAPGKEREFVAAITWGGNTYYADSVKGRFTISRDNAKNTVYLQTNSLKPEDTAVYYCAAGGRPQYWGRYYYWGQGTQVTVSS | high polyreactivity
36 | QVQLVESGGGLVQAGGSLRLSSAPSGSTFTRYAMGWYRQAPGKERELVAAITSSGSRTYYADSVKGRFTISRDNAQNTVYLQKNSLKAEDTAVYYFAALGDTRYVGMDHWGQCTQVTVSS | high polyreactivity
37 | QVQLVESGGGLVQAGGSLRLSCAASGFTFDWYAMGWYRPAPGKERELVAAISSGGNTKYADSVKGRFTISRDNAKNTVYLQMNSLKPEDTAVYYCAARLYYSLSYYYWGQGTQVTVAS | high polyreactivity
38 | QVQLVESGGGLVQAGGSLRLSCAASGSIFWYYAMGWYRQAPGKERELVATIRKRSGSTYYADSVKGRFTISRDNAKNTVYLQMNSLKPEDTAVYYCAADYTAYGYDYWGQGTQVTVSS | low polyreactivity
39 | QVQLVESGGGLVQAGGSLRLSCAASGIIFAYNAMGWYRQAPGKERELVATITDSGGSTSYADSVKGRFTISRDNAKNTVYLQMNSLKPEDTAVYYCAVLPVYWYWRNYVYLSGYDYWGQGTQVTVSS | low polyreactivity
40 | QVHLVESGGGLVQAGGSLRLSCAASGITFKRYAMGWYRQAPGKERELVAAISDIGGRTYYADSVKGRFTISRDNAKNTVYLQMNSLKPEDTAGYFCAADYYSPVDWYYYWGQGTQVTVSS | high polyreactivity
41 | QVQLVESGGVLVQAGGSLRLSCAASGRTFGVYAMGWYRQAPGKERELVATITSVDRTNYADSVKGRFTISRDNAKNTVYLQMNSLKTEDTAVYYCAAVGRWPLYYYWGQGTQVTVSS | high polyreactivity
42 | QVQLVESGGGLVQAGGSLRLSCAASGLIIWLYTMGWYRQAPGKERELVAAIDWSGGSTYYADSVKGRFTISRDNAKNTDYLQMNSLKPEDTAVYYCAADPEPSYRFDYCGQGTQVTVSS | low polyreactivity
43 | QGLLVESGGGLVQAGGSLRLTCAASGFIFSGYAMGWYRPAPGKERELVAAISWSGSSTYYADSVKGRFTISRDNAKNTVYLQMNSLKPEDTAVYYCAAWYTSTRPYDYWGQGTQVTVSS | high polyreactivity
